Legend:
[1] = biological target: PEDV spike ectodomain (S-ECD, amino acids 1 to 1325) fused with a T4 foldon at the C-terminus (porcine epidemic diarrhea virus (strain dndz) | bacteriophage T4 (printed as T4)); experiment: SEC
[2] = biological target: PEDV spike ectodomain (S-ECD, amino acids 1 to 1325) fused with a T4 foldon at the C-terminus (porcine epidemic diarrhea virus (strain dndz) | bacteriophage T4 (printed as T4)); experiment: transmission electron microscopy; TEM of the purified S protein

PEDV spike ectodomain (S-ECD, amino acids 1 to 1325) fused with a T4 foldon at the C-terminus (domain or fragment)
stoichiometry N [1]: 3 | stoichiometry N [2]: 3

Reference: paper PMC11831279
